Experimental data from patent WO2007124463A1 (dated 2007).
Blank lines part the entries; values can stand above or below the binder they belong to.

Experiments:
human GLP-1 receptor [1] = target: T1, human GLP-1 receptor (human, UniProt P43220 24-463); assay: displacement of 0.2 nM 125I-GLP-1 from membranes of CHOK1 cells expressing human GLP-1 receptor
T1 construct: whole, on cells; also called human receptor; GLP-IR

human GLP-1 receptor [2] = target: T1, human GLP-1 receptor; assay: cell-based or functional assay
mouse GLP-1 receptor = target: T2, mouse GLP-1 receptor (mouse, UniProt O35659 22-463); assay: cell-based or functional assay
T2 sequence (looked up): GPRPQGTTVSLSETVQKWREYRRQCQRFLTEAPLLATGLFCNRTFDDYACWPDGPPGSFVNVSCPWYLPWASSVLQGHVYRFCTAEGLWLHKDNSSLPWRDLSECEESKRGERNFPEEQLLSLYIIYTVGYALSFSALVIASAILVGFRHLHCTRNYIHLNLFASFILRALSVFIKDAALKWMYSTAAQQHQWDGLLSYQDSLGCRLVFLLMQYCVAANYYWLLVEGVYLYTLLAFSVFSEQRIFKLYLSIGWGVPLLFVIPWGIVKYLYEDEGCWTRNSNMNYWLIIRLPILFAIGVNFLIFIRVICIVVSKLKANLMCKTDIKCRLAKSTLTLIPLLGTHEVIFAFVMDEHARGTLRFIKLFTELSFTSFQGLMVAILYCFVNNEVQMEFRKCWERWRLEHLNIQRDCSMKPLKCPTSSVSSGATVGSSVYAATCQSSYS

glucagon [3] = target: T3, glucagon (UniProt P01275 53-81); assay: inhibition of 200 pM 125I-glucagon binding to crude membranes of cells expressing the glucagon receptor, dose range of AG159
T3 construct: mature

glucagon [4] = target: T3, glucagon; assay: cell-based or functional assay

T3 sequence (P01275 53-81): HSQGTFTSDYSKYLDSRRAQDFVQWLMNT

- IC50 (human GLP-1 receptor [1]): 5 to 10 nM
- EC50 of activation, GLP-1R luciferase reporter assay (human GLP-1 receptor [2]): 0.1 nM
- EC50 of activation, GLP-1R luciferase reporter assay (mouse GLP-1 receptor): 5 nM
B1: AG159LC:GLP(A2G)-AG159 IgG2 (other)
light: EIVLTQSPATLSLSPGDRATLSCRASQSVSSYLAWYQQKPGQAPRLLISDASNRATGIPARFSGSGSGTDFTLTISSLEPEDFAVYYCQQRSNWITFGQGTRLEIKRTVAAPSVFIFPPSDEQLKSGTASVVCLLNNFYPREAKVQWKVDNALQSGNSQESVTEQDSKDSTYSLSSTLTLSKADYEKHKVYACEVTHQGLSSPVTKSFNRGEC
heavy: HGEGTFTSDVSSYLEGQAAKEFIAWLVKGRGGSGSATGGSGSTASSGSGSATGGGGGGQVQLVESGGGVVQPGRSLRLSCAASGFTFSSYGMHWVRQAPGKGLEWVAVIYYDGSNKYYADSVKGRFTISRDITKNTLYLQMNSLRAEDTAVYYCARASRGFDYWGQGTLVTVSS
notes: GLP-1 peptide-antibody fusion; It was produced in CHO cells; also called GLP(A2G)-AG159 HC; AG159LC:GLP-1-AG159 IgG2; not shown: human IgG2 heavy chain constant region

- IC50 (glucagon [3]): 0.2 nM
- IC50 of neutralization of glucagon stimulated luciferase reporter activity (cells expressing recombinant glucagon receptor, 0.1 nM glucagon) (glucagon [4]): 4 nM
B2: AG159 fully human anti-glucagon monoclonal antibody (antibody, V domains shown, not shown: a dimerising Fc or GST)
VH: QVQLVESGGGVVQPGRSLRLSCAASGFTFSSYGMHWVRQAPGKGLEWVAVIYYDGSNKYYADSVKGRFTISRDITKNTLYLQMNSLRAEDTAVYYCARASRGFDYWGQGTLVTVSS
VL: EIVLTQSPATLSLSPGDRATLSCRASQSVSSYLAWYQQKPGQAPRLLISDASNRATGIPARFSGSGSGTDFTLTISSLEPEDFAVYYCQQRSNWITFGQGTRLEIKR
notes: also called AGl 59; AG159 Ab

- IC50 (human GLP-1 receptor [1]): 5 to 10 nM
- EC50 of activation, GLP-1R luciferase reporter assay (human GLP-1 receptor [2]): 0.1 nM
- EC50 of activation, GLP-1R luciferase reporter assay (mouse GLP-1 receptor): 5 nM
B3: GLP(A2G)-AG159LC:AG159 IgG2 (other)
light: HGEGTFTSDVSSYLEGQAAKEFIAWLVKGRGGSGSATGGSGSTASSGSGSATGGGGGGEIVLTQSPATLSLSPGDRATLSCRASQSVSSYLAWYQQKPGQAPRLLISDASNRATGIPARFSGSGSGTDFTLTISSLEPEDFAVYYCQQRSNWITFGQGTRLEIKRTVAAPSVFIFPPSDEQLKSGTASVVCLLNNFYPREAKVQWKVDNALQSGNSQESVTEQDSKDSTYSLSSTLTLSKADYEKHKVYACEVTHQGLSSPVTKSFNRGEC
heavy: B2 VH
notes: GLP-1 peptide-antibody fusion; also called GLP(A26)-AG159LC:AG159 IgG2; not shown: which one cannot be told, Tab
